Here are results for one variant from IntAct's records for PubMed 25036637.

First the molecules themselves.
B1: BAG family molecular chaperone regulator 4 (Homo sapiens), O95429 (parent)
chain: MSALRRSGYGPSDGPSYGRYYGPGGGDVPVHPPPPLYPLRPEPPQPPISWRVRGGGPAETTWLGEGGGGDGYYPSGGAWPEPGRAGGSHQEQPPYPSYNSNYWNSTARSRAPYPSTYPVRPELQGQSLNSYTNGAYGPTYPPGPGANTASYSGAYYAPGYTQTSYSTEVPSTYRSSGNSPTPVSRWIYPQQDCQTEAPPLRGQVPGYPPSQNPGMTLPHYPYGDGNRSVPQSGPTVRPQEDAWASPGAYGMGGRYPWPSSAPSAPPGNLYMTESTSPWPSSGSPQSPPSPPVQQPKDSSYPYSQSDQSMNRHNFPCSVHQYESSGTVNNDDSDLLDSQVQYSAEPQLYGNATSDHPNNQDQSSSLPEECVPSDESTPPSIKKIIHVLEKVQYLEQEVEEFVGKKTDKAYWLLEEMLTKELLELDSVETGGQDSVRQARKEAVCKIQAILEKLEKKGL
partner: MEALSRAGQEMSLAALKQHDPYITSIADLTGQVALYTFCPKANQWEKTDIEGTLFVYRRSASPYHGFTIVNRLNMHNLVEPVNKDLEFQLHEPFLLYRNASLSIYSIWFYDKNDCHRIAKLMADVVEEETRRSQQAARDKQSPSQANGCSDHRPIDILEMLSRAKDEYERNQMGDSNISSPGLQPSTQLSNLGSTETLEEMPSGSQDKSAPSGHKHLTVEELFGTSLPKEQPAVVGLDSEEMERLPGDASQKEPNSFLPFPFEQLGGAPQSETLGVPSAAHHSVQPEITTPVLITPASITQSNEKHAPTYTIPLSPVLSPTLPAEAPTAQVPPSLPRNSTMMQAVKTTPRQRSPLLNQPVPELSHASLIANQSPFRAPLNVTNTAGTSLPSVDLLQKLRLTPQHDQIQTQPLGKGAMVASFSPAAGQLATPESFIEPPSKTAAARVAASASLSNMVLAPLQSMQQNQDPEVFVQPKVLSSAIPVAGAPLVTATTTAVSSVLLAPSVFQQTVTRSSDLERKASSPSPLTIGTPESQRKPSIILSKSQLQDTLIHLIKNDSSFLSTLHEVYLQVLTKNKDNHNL

This test covers variants of B1. The note with it: with dcp1a_human DCP1A.
Turning to MSALRRSGYGPSDGPSYGRYYGPGGGDVPVHPPPPLYPLRPEPPQPPISWRVRGGGPAETTWLGEGGGGDGYYPSGGAWPEPGRAGGSHQEQPPYPSYNSNYWNSTARSRAPYPSTYPVRPELQGQSLNSYTNGAYGPTYPPGPGANTASYSGAYYAPGYTQTSYSTEVPSTYRSSGNSPTPVSRWIYPQQDCQTEAPPLRGQVPGYPPSQNPGMTLPHYPYGDGNRSVPQSGPTVRPQEDAWASPGAYGMGGRYPWPSSAPSAPPGNLYMTESTSPWPSSGSPQSPPSPPVQQPKDSSYPYSQSDQSMNRHNFPCSVHQYESSGTVNNDDSDLLDSQVQYSAEPQLYGNATSDHPNNQDQSSSLPEECVPSDESTPPSIKKIIHVLEKVQYLEQEVEEFVGKKTDKAYWLLEEMLTKELLELASVETGGQDSVRQARKEAVCKIQAILEKLEKKGL [D424A], the “effect of a mutation on the interaction” value is given as “disrupting interaction”.
